PMC3005033
Read-outs that look alike come from different tables or passages of the source.

How the values were obtained:
Test in all cases: co-IP
[1] = molecular target: GluA2/3+GluA4 (rat (endogenous in adult Sprague-Dawley rat brain))
[2] = molecular target: AMPA receptor subunit GluA2 (rat (endogenous in adult Sprague-Dawley rat brain)) (UniProt P19491)
[3] = molecular target: AMPA receptor subunit GluA2 (rat (endogenous in adult Sprague-Dawley rat brain)) (UniProt P19491); remark: listed apart in the source
[4] = molecular target: AMPA receptor subunit GluA1 (rat (endogenous in adult Sprague-Dawley rat brain)) (UniProt P19490)
[5] = molecular target: AMPA receptor subunit GluA1 (rat (endogenous in adult Sprague-Dawley rat brain)) (UniProt P19490); remark: listed apart in the source
[6] = molecular target: AMPA receptor subunit GluA1 (rat (endogenous in adult Sprague-Dawley rat brain)) (UniProt P19490); remark: listed apart in the source
[7] = molecular target: AMPA receptor subunit GluA1 (rat (endogenous in adult Sprague-Dawley rat brain)) (UniProt P19490); remark: listed apart in the source

Sequence of AMPA receptor subunit GluA1 (rat (endogenous in adult Sprague-Dawley rat brain)) (P19490 19-907): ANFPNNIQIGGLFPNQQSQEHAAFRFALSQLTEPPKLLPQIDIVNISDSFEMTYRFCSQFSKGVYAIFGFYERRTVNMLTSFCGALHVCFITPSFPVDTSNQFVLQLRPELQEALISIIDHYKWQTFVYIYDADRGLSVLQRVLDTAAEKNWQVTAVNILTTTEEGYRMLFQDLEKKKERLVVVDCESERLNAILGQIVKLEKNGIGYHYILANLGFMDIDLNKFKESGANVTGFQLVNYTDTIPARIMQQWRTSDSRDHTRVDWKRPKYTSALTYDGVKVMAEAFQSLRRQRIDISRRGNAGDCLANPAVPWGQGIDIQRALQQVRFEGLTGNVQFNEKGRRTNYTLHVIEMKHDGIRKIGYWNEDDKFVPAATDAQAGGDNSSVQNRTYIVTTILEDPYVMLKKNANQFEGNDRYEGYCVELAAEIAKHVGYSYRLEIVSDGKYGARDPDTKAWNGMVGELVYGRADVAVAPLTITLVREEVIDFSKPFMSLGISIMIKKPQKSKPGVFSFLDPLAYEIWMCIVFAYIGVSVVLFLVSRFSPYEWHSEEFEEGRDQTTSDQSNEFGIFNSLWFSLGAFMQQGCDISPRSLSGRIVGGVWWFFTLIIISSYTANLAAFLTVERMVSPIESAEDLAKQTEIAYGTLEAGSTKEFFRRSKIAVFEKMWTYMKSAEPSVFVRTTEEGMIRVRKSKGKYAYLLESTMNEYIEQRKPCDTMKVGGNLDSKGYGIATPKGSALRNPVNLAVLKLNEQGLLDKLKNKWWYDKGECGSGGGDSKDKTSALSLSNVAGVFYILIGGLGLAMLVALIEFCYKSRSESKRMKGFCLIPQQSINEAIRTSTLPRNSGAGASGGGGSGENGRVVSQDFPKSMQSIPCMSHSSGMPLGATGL
Sequence of AMPA receptor subunit GluA1 (P19490 19-907): as above
Sequence of AMPA receptor subunit GluA2 (P19491 22-883): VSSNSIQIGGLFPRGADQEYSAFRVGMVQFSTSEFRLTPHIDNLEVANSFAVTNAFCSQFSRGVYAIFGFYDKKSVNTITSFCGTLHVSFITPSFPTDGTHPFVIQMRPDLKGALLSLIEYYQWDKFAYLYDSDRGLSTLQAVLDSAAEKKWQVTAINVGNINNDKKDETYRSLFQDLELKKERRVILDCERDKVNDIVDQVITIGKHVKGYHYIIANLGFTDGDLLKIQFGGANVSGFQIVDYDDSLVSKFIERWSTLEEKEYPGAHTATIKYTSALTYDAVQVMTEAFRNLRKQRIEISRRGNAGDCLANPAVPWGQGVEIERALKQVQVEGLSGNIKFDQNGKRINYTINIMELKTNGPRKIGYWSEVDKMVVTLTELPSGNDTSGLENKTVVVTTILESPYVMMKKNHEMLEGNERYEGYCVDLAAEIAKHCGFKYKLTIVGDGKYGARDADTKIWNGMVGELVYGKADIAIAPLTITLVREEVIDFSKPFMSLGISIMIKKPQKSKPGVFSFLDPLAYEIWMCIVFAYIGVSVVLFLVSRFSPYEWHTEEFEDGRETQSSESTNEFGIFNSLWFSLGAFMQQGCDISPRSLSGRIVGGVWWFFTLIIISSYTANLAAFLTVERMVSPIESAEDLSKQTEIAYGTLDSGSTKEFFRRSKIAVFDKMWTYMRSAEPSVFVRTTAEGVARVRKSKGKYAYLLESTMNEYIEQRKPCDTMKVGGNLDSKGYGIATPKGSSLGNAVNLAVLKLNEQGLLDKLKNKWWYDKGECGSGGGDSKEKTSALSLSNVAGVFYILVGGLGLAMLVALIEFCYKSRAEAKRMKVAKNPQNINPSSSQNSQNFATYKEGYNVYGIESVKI
Sequence of AMPA receptor subunit GluA2 (rat (endogenous in adult Sprague-Dawley rat brain)) (P19491 22-883): as above

percent of GluA1 removed by IP with GluA2/3+GluA4 antibodies [1] [%] | percent of GluA1 complexed with GluA2 (the paper's estimate) [2] [%] | percent of GluA1 complexed with GluA2 (the paper's estimate) [3] [%] | percent of GluA2 left in the unbound fraction after IP with GluA1 antibody [4] [%] | percent of GluA2 left in the unbound fraction after IP with GluA1 antibody [5] [%] | percent of GluA2 left in the unbound fraction after IP with GluA1 antibody [6] [%] | percent of GluA2 left in the unbound fraction after IP with GluA1 antibody [7] [%] | Substance
93 | > 80 | > 80 | – | – | – | – | AMPA receptor subunit GluA1 (from UniProt P19490 19-907)
– | – | – | 65 | 55 | 62 | 53 | AMPA receptor subunit GluA2 (from UniProt P19491 22-883)
